Test results taken from publication PMC8719716.

Assays:
[1] = biological target: Plk1 (UniProt P70032); experiment: reciprocal co-IP of tagged proteins, embryo lysates; details: reference: wild type CEP97; sites S634,S643,S649,S653
[2] = biological target: Plk1 PB1 and PB2 domains (UniProt P70032); experiment: as above; details: reference: wild type CEP97; sites S634,S643,S649,S653

- binding against the reference [1]: weaker
- binding against the reference [2]: lost
Substance: CEP97 (from UniProt Q6GPJ8) CEP97 SA (S634A, S643A, S649A, S653A)
